In publication PMC12155690:

What was measured:
[1] = biological target: human RetGC1 p.(Tyr555Ser) (human) (UniProt Q02846)
[2] = biological target: T1, human retinal guanylyl/guanylate cyclase 1 (RetGC1), wild type (human) (UniProt Q02846)
T1 sequence: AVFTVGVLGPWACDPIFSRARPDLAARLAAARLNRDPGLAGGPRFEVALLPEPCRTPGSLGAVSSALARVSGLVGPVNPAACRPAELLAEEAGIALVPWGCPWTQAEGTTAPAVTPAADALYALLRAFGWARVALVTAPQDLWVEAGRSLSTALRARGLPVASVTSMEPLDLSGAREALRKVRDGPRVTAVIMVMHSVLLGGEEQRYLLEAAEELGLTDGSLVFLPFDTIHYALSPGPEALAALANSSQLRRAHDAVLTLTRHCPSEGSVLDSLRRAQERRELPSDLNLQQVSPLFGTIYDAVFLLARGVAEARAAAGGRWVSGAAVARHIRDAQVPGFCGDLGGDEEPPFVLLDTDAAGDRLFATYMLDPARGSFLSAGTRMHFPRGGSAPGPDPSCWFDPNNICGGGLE

[3] = biological target: human RetGC1 p.(Arg624Gln) (human) (UniProt Q02846)
[4] = biological target: human RetGC1 p.(Leu587Val) (human) (UniProt Q02846)

[GCAP]1/2: GCAP1 concentration producing half-maximal stimulation of guanylyl cyclase activity (HEK293 membranes, 10 mM MgCl2, 2 mM EGTA) [1]: 4.4 µM | [GCAP]1/2: GCAP1 concentration producing half-maximal stimulation of guanylyl cyclase activity (HEK293 membranes, 10 mM MgCl2, 2 mM EGTA) [2]: 0.98 µM | [GCAP]1/2: GCAP1 concentration producing half-maximal stimulation of guanylyl cyclase activity (HEK293 membranes, 10 mM MgCl2, 2 mM EGTA) [3]: 4.1 µM | [GCAP]1/2: GCAP1 concentration producing half-maximal stimulation of guanylyl cyclase activity (HEK293 membranes, 10 mM MgCl2, 2 mM EGTA) [4]: 2.4 µM
B1: Human GCAP1 (Ser6) (natural protein)
chain: MGNVMSGKSVEELSSTECHQWYKKFMTECPSGQLTLYEFRQFFGLKNLSPSASQYVEQMFETFDFNKDGYIDFMEYVAALSLVLKGKVEQKLRWYFKLYDVDGNGCIDRDELLTIIQAIRAINPCSDTTMTAEEFTDTVFSKIDVNGDGELSLEEFIEGVQKDQMLLDTLTRSLDLTRIVRRLQNGEQDEEGADEAAEAAG
